Article doi:10.1101/2021.04.19.440493

Key:
[1] = target: α-domain of Ag43a from UPEC CFT073 (α^43a) (E. coli CFT073 (UPEC)); experiment: AUC
[2] = target: α-domain of Ag43a from UPEC CFT073 (α^43a) (E. coli CFT073 (UPEC)); experiment: small-angle X-ray scattering
[3] = target: α-domain of Ag43 from UPEC UTI89 (α^43_UTI89) (E. coli O18:K1:H7 UTI89 (UPEC)); experiment: AUC
[4] = target: α-domain of Ag43 from UPEC UTI89 (α^43_UTI89) (E. coli O18:K1:H7 UTI89 (UPEC)); experiment: small-angle X-ray scattering

α-domain of Ag43a from UPEC CFT073 (α^43a) (domain or fragment)
stoichiometry N [1]: 2
stoichiometry N [2]: 2

α-domain of Ag43 from UPEC UTI89 (α^43_UTI89) (domain or fragment)
stoichiometry N [3]: 2
stoichiometry N [4]: 2
